Paper PMC3690481, “OTULIN Antagonizes LUBAC Signaling by Specifically Hydrolyzing Met1-Linked Polyubiquitin” (Cell, 2013)

Target: T1, FlAsH-tagged Met1-diUb (UniProt P0CG48 1-76; P0CG48 1-71, Lumio Green (FlAsH) on the C-terminal WCCPGCC motif)
T1 construct: ubiquitin, distal moiety, residues 1-76, joined by Gly76 in a peptide bond to Met1 of the proximal moiety; ubiquitin, proximal moiety; a C-terminal WCCPGCC motif replaces aa 72-76, so that residues 1-71 are left; Construct described in Ye et al., 2011; Chain: Ub(1-76)-Ub(1-71)-WCCPGCC; also called FlAsH-tagged Met1-diUb WT; Met1-linked diUb; source: expressed from pET17 plasmid, purified as …
Assay: fluorescence polarisation; FlAsH-tagged diUb fixed (10 μl of 100 nM plus 10 μl protein), OTULIN C129A variants serially diluted; 20 mM Tris pH 7.4, 100 mM NaCl, 5 mM β-mercaptoethanol, 0.1 mg/ml BSA; one-site binding model; triplicate
Details: both partners purified

| binding result | Kd [µM] | Binder |
| --- | --- | --- |
| binds | – | OTULIN C129A TQK100-102AAA (enzyme, human, UniProt Q96BN8 1-352, looked up, also called triple mutant TQK100-102 to AAA; source: E. coli Rosetta2 (DE3) pLacI, purified (Ni2+ resin, 3C protease, SEC)) MSRGTMPQPEAWPGASCAETPAREAAATARDGGKAAASGQPRPEMQCPAEHEEDMYRAADEIEKEKELLIHERGASEPRLSVAPEMDIMDYCKKEWRGNAAAATCMKMGYEEVSQKFTSIRRVRGDNYAALRATLFQAMSQAVGLPPWLQDPELMLLPEKLISKYNWIKQWKLGLKFDGKNEDLVDKIKESLTLLRKKWAGLAEMRTAEARQIACDELFTNEAEEYSLYEAVKFLMLNRAIELYNDKEKGKEVPFFSVLLFARDTSNDPGQLLRNHLNQVGHTGGLEQVEMFLLAYAVRHTIQVYRLSKYNTEEFITVYPTDPPKDWPVVTLIAEDDRHYNIPVRVCEETSL |
| – | 0.196 | OTULINcat C129A (aa 80–352) (domain or fragment, human, UniProt Q96BN8 80-352, looked up, FAM105B/OTULIN, human, catalytic OTU domain aa 80-352, catalytic Cys129 changed to Ala; Expressed from pOPIN-F. PDB 3ZNV is the wild-type parent of the same limits; also called OTULIN (80–352) C129A; OTULIN 80-352 C129A; source: E. coli Rosetta2 (DE3) pLacI, purified (Ni2+ resin, 3C protease, anion exchange, SEC)) LSVAPEMDIMDYCKKEWRGNTQKATCMKMGYEEVSQKFTSIRRVRGDNYAALRATLFQAMSQAVGLPPWLQDPELMLLPEKLISKYNWIKQWKLGLKFDGKNEDLVDKIKESLTLLRKKWAGLAEMRTAEARQIACDELFTNEAEEYSLYEAVKFLMLNRAIELYNDKEKGKEVPFFSVLLFARDTSNDPGQLLRNHLNQVGHTGGLEQVEMFLLAYAVRHTIQVYRLSKYNTEEFITVYPTDPPKDWPVVTLIAEDDRHYNIPVRVCEETSL |
